Test results from patent US20170015742A1 (published 2017).
Residue numbers refer to the chain shown, from its start.

T1: Cynomolgus monkey PDGF-BB (cynomolgus monkey, UniProt P01127 82-190 (human entry), limits assumed)
T1 chain: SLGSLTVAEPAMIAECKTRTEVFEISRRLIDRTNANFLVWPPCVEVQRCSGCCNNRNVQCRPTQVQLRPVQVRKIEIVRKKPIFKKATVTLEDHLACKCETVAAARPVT

B1: CL-33706-IgG (antibody, V domains shown)
VH: EVTLRESGPALVKPTQTLTLTCTFSGFSLSTYGMGVGWIRQPPGKALEWLANIWWDDDKYYNPSLKNRLTISKDTSKNQVVLTMTNMDPVDTATYYCARIETMGPKYSFDYWGQGTMVTVSS
VL: EIVLTQSPGTLSLSPGERATLSCRASSGSIWYSFVSWYQQKPGQAPRLLIYADDQRASGIPDRFSGSGSGTDFTLTISRLEPEDFAVYYCQSYGINIDVVFGGGTKVEIK
B2: CL-33805-IgG (antibody, V domains shown)
VH: B1 VH with T102S, M103H, G104W, P105W, K106S, S108A
VL: EIVLTQSPGTLSLSPGERATLSCERSSGSNYDTYVSWYQQKPGQAPRLLIYADDLRASGIPDRFSGSGSGTDFTLTISRLEPEDFAVYYCQSYGIETDIVFGGGTKVEIK
B3: CL-33701-IgG (antibody, V domains shown)
VH: B1 VH with T102S, M103L, P105T, K106S
VL: EIVLTQSPGTLSLSPGERATLSCERSSGDIWDYYVSWYQQKPGQAPRLVIYADDQRPSGIPDRFSGSGSGTDFTLTISRLEPEDFAVYYCQSYDLFIDVTFGGGTKVEIK
B4: CL-33803-IgG (antibody, V domains shown)
VH: B1 VH with T102S, M103L, G104P, P105T, K106S
VL: B3 VL with Y33T, V49L, L95I, F96I, V99I, T100V
B5: CL-33820-IgG (antibody, V domains shown)
VH: B1 VH with T102S, M103S, G104F, P105T, K106S
VL: B3 VL with E24K, D29S, W31Y, Y33T, A52S, F96T, V99I
B6: CL-33855-IgG (antibody, V domains shown)
VH: B1 VH with M103F
VL: B1 VL
B7: CL-33812-IgG (antibody, V domains shown)
VH: B1 VH with T102S, M103N, G104P, P105W
VL: B1 VL with R24E, A25R, S29D, Y32Q, F34Y, L49V, A52S
B8: CL-33811-IgG (antibody, V domains shown)
VH: B1 VH with T102S, M103S, G104W, P105T, K106T
VL: B1 VL with R24E, A25R, Y32H, F34Y, A52S, S58T, N96Y
B9: CL-33731-IgG (antibody, V domains shown)
VH: B1 VH with T102S, M103I, G104P, P105T, K106S
VL: B3 VL with D29S, D32Q, Y33S, P57A, S58T, L95I, F96D, T100V
B10: chBDI-1E1 half body (antibody, V domains shown)
VH: EVKLQQSGDELVRPGASVKMSCKASGYTFTDYVMHWVKQSPGQGLEWIGTIIPLIDTTSYNQKFKGKATLTADKSSNTAYMELSRLTSEDSAVYYCARTSPYYYSSYDVMDAWGQGASVTVSS
VL: NIQLTQSPSLLSASVGDRVTLSCKGSQNINNYLAWYQQKLGEAPKLLIYKTNNLQTGIPSRFSGCGSGTDYTLTISSLHSEDLATYYCYQYDNGYTFGAGTKLELK
B11: chBFU-3E2-B9-B8 (antibody, human IgG1, V domains shown)
VH: EVQLQQSGPELQRPGASVKLSCKASGYTFTESYMYWVKQRPEQSLELIGRIDPEDGSTDYVEKFKNKATLTADTSSNTAYMQLSSLTSEDSATYFCARFGARSYFYPMDAWGQGTSVTVSS
VL: DTVLTQPPALAVSPGERVSISCRASESVSTLMHWYQQKPGQQPRLLIYGASNLESGVPARFSGSGSGTDFTLTIDPVEADDTATYFCQQSWNDPWTFGGGTKLELK
B12: chBFU-11A8 half-body (antibody, V domains shown)
VH: B11 VH with M34I, S91T
VL: B11 VL with P7S, A9T, S21P
B13: chBFU-11A8-D6-C3 (antibody, human IgG1, V domains shown)
VH: B11 VH with M34I, S91T
VL: B11 VL with P7S, A9T, S21P
B14: chBFU-3E2 half-body (antibody, V domains shown)
VH: B11 VH
VL: B11 VL
B15: chBDI-9E8 half-body (antibody, V domains shown)
VH: QVTLKESGPGILQPSQTLSLTCTFSGFSLSTYGMGVGWIRQPSGKGLEWLANIWWDDDKYYNPSLKNRLTISKDTSNNQAFLKITNVDTADTATYYCARIESIGTTYSFDYWGQGVMVTVSS
VL: QFTLTQPKSVSGSLRSTITIPCERSSGDIGDSYVSWYQQHLGRPPINVIYADDQRPSEVSDRFSGSIDSSSNSASLTITNLQMDDEADYFCQSYDINIDIVFGGGTKLTVL
B16: chBDI-5H1 half-body (antibody, V domains shown)
VH: QVTLKESGPGILQPSQTLSLTCTFSGFSLSTFGMGVGWIRQPSGKGLEWLANIWWDDDKYYNPSLKNRLTISKDTSNSQAFLEITNVDTADTATYYCARISTGISSYYVMDAWGQGASVTVSS
VL: B15 VL with S32T, A51G, D52N, I96S, N97D

Target: T2, Human PDGF-BB (human, UniProt P01127 82-190)
T2 construct: Dimer of two B chains; also called hPDGF-BB; huPDGF-BB
Assay: competition ELISA: antibody pre-incubated with hPDGF-BB-biotin, binding to coated hPDGF-Rβ-Fc
Method: Plates were then washed four times with wash buffer (TBS, 0.05% Tween-20) and blocked with Superblock blocking buffer (Thermo Scientific, cat#37535). During the blocking step, supernatants, antibodies, benchmark compounds or DVD-Ig were diluted in assay diluent (10% Superblock containing 0.05% surfactamps) and an eight point titration of each sample molecule was performed. […] Following incubation, plates were washed four times with wash buffer. Detection reagent Streptavidin-polyHRP-40 (Fitzgerald, cat#65r-s104phrp) was diluted in assay diluent and added to plates (50 μL) for 45 minutes at 25° C. with shaking. Plates were washed four times with wash buffer and developed with the addition of Enhanced K-blue TMB substrate (Neogen, cat#308177). The reaction was stopped with 2N sulfuric acid (VWR, cat# BDH3500-1) and the absorbance was read at 450 nm-570 nm. […] Data was analyzed using Softmax Pro 4.8 software and IC₅₀ values calculated using a sigmoidal dose response (variable slope) fit in GraphPad Prism 5.
Potency was evaluated in both cell-based and ELISA formats.
Target sequence in this assay (P01127 82-190 limits assumed): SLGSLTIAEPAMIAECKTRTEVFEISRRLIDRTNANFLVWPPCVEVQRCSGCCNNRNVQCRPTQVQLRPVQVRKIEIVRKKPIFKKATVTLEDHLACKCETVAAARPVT

In order of falling IC50:
1. B6  162 pM
2. B8  100 pM
3. B1  81 pM
4. B9  68 pM
5. B5  66 pM
6. B2  63 pM
7. B3  59 pM
8. B4  44 pM
9. B7  43 pM

Target: T1, Cynomolgus monkey PDGF-BB
Assay: cell-based or functional assay

In order of falling “cynoPDGF-BB NIH-3T3 Proliferation IC50” value:
1. B7  28 pM
2. B9  23 pM
3. B1  19 pM
4. B6  19 pM
5. B2  18 pM
6. B4  18 pM
7. B5  13 pM
8. B3  12 pM
9. B8  12 pM

Target: T2, Human PDGF-BB
Assay: cell-based or functional assay
Target sequence in this assay (P01127 82-190 limits assumed): as above

In order of falling “hPDGF-BB NIH-3T3 Proliferation IC50” value:
1. B3  56 pM
2. B2  39 pM
3. B6  37 pM
4. B9  36 pM
5. B1  35 pM
6. B7  33 pM
7. B8  32 pM
8. B4  24 pM
9. B5  17 pM

Target: T2, Human PDGF-BB
Assay: Biacore SPR, antibody captured by anti-human Fc, PDGF-BB as analyte
Method: Unreacted moieties on the biosensor surface were blocked with ethanolamine. For kinetic analysis, rate equations derived from the 1:1 Langmuir binding model were fitted simultaneously to multiple antigen injections (using global fit analysis) with the use of Scrubber 2 (BioLogic Software), Biacore Biaevaluation 4.0.1 software or Biacore T100 Evaluation software. Purified antibodies or DVD-Ig molecules were diluted in running buffer for capture across goat anti-human Fc reaction surfaces. Antibodies or DVD-Ig molecules to be captured as a ligand (1 μg/ml) were injected over reaction matrices at a flow rate of 10 μl/minute. During the assay, all measurements were referenced against the capture surface alone (i.e., with no captured antibody or DVD-Ig molecule). […] The equilibrium dissociation constant KD (M) of the reaction between antibodies and the target antigen was then calculated from the kinetic rate constants by the following formula: KD=Koff/Kₒₙ. Binding was recorded as a function of time and kinetic rate constants were calculated. In this assay, on-rates as fast as 10⁶M⁻¹s⁻¹ and off-rates as slow as 10⁻⁶ s⁻¹ could be measured. […]

First: B1
Second: B2
The Kd of the first is 3.3-fold higher: 0.69 pM for the first, 0.21 pM for the second.

First: B3
Second: B4
The Kd of the first is higher: 0.24 pM for the first, at most 0.16 pM for the second.

B5 and B6 cannot be ordered by Kd: at most 0.16 pM for the first, at most 0.05 pM for the second.

Compared with B7, B8 is 1.5-fold higher in Kd: 0.3 pM for the first, 0.45 pM for the second.

B9 was tested, and the Kd was 0.2 pM.

Going from B1 to B2, the kon rises from 1.8e+07 M⁻¹ s⁻¹ to 6.8e+07 M⁻¹ s⁻¹ (3.8-fold).

Compared with B3, B4 is higher in kon: 7.3e+07 M⁻¹ s⁻¹ for the first, at least 9e+07 M⁻¹ s⁻¹ for the second.

Compared with B5, B6 is lower in kon: at least 9.8e+07 M⁻¹ s⁻¹ for the first, 2e+07 M⁻¹ s⁻¹ for the second.

Compared with B7, B8 is 2.3-fold lower in kon: 6.3e+07 M⁻¹ s⁻¹ for the first, 2.7e+07 M⁻¹ s⁻¹ for the second.

B9 was tested, and the kon was 8.1e+07 M⁻¹ s⁻¹.

Target: T3, recombinant human PDGF-BB (human, UniProt P01127 82-190, biotin-labelled in the binding and competition ELISAs (sites not given))
Assay: cell-based or functional assay

T3 sequence (P01127 82-190 limits assumed): as above

First: B10
Second: B11
The “huPDGF-BB Neutralization Potency (nM) in NIH-3T3 Cells” value (“huPDGF-BB Neutralization Potency (nM)” below) of the first is higher: over 10 nM for the first, 0.099 nM for the second.

Going from B12 to B13, the “huPDGF-BB Neutralization Potency (nM)” value falls from over 10 nM to 0.086 nM.

B14 and B15 are within 1.5-fold of each other in “huPDGF-BB Neutralization Potency (nM)” value: 2.49 nM for the first, 1.84 nM for the second.

In the case of B16, the “huPDGF-BB Neutralization Potency (nM)” value is reported as over 10 nM.

Target: T3, recombinant human PDGF-BB
Assay: Biacore SPR, antibody captured by anti-human Fc, PDGF-BB injected
Method: For example, approximately 9000 RU of goat anti-human Fc specific polyclonal antibody (Thermo Fisher Scientific Inc., Rockford, Ill.) diluted in 10 mM sodium acetate (pH 4.5) is directly immobilized across a CM5 research grade biosensor chip using a standard amine coupling kit according to manufacturer's instructions and procedures at 25 μg/ml. Unreacted moieties on the biosensor surface were blocked with ethanolamine. For kinetic analysis, rate equations derived from the 1:1 Langmuir binding model were fitted simultaneously to multiple antigen injections (using global fit analysis) with the use of Scrubber 2 (BioLogic Software), Biacore Biaevaluation 4.0.1 software or Biacore T100 Evaluation software. Purified antibodies or DVD-Ig molecules were diluted in running buffer for capture across goat anti-human Fc reaction surfaces. Antibodies or DVD-Ig molecules to be captured as a ligand (1 μg/ml) were injected over reaction matrices at a flow rate of 10 μl/minute. During the assay, all measurements were referenced against the capture surface alone (i.e., with no captured antibody or DVD-Ig molecule). […] The equilibrium dissociation constant KD (M) of the reaction between antibodies and the target antigen was then calculated from the kinetic rate constants by the following formula: KD=Koff/Kₒₙ. Binding was recorded as a function of time and kinetic rate constants were calculated.

B11 and B13 cannot be ordered by Kd: at most 19 pM for the first, at most 15 pM for the second.

In order of falling koff:
1. B11  0.00019 s⁻¹
2. B13  0.00015 s⁻¹

B11 and B13 cannot be ordered by kon: at least 1e+07 M⁻¹ s⁻¹ for the first, at least 1e+07 M⁻¹ s⁻¹ for the second.
